pKd: −log10 of the molar value.
Each substance was assayed against biotinylated HIP1 (22-309) (UniProt O00291) (assay: SPR; Biacore T200, 25°C; biotinylated HIP1(22-309) immobilised on Sensor Chip NA (900 RU); Ub chains as analytes 60 nM to 250 uM, multicycle; 50 mM Hepes pH 7.5, 300 mM NaCl, 0.5 mM TCEP, 0.05% Tween-20, 1% BSA; steady-state affinity model).
Chain of UniProt O00291 (O00291 22-309): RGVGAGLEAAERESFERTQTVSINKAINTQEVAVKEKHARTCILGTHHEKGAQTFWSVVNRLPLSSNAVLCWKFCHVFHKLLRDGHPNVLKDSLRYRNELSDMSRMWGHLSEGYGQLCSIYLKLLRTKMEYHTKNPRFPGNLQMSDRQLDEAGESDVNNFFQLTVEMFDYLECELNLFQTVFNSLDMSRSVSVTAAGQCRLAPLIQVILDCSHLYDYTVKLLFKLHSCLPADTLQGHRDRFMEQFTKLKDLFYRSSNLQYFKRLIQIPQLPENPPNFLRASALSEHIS
A pKd of 3.86 was found for “K48-linked Ub2 (from UniProt P0CG48 1-76; P0CG48 1-76)” in this work.
A pKd of 4.18 was found for “K48-linked Ub3 (from UniProt P0CG48 1-76; P0CG48 1-76)” in this work.
A pKd of 5.72 was found for “K63-linked Ub2 (from UniProt P0CG48 1-76; P0CG48 1-76)” in this work.
A pKd of 5.81 was found for “K63-linked Ub3 (from UniProt P0CG48 1-76; P0CG48 1-76)” in this work.
